Consider 11 molecules from paper PMC9127587, “Antibody recognition of complement factor H reveals a flexible loop involved in atypical hemolytic uremic syndrome pathogenesis” (The Journal of Biological Chemistry, 2022).

Assay [1] addresses CFH18-20 (human complement factor H CCP18-20) with myc tag and His-tag (human) (UniProt P08603). The experiment in a line: SPR; CFH18-20 (or W1183A) immobilised on a CM5 chip by amine coupling at around 300 RU; VHH4 or its mutants injected as analyte at 30 uL/min; single-cycle kinetics; PBS pH 7.4, Tween 20 (0.005%), 25 °C; Biacore 8K.
Assay [2] deals with CFH18-20 W1183A_(CCP20) (human) (UniProt P08603). Described as above.
Sequence of CFH18-20 W1183A_(CCP20) (human) (P08603 1046-1231 W1183A): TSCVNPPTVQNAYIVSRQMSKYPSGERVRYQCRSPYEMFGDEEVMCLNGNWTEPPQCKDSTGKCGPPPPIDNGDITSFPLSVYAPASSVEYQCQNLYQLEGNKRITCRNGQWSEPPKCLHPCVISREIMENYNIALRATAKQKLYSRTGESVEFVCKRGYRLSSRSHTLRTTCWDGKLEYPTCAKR
The target of assay [3] is T1, CFH18-20 (human complement factor H CCP18-20) with His-tag only (Homo sapiens, UniProt P08603).
T1 construct: complement factor H (CFH), human, domains CCP18-20; Construct for crystallization; Domain CCP18 was not observed in the crystal structure; also called CFH18-20 with His-tag; source: Expi293 cells, transfected, purified from the supernatant (Ni-NTA, SEC); not shown: His-tag, C-terminal, kept
T1 sequence (P08603 1046-1231): as the sequence (P08603 1046-1231 W1183A) above, with A138W counted along it
The experiment in a line: crystal structure; complex of CFH18-20 with His-tag and VHH4 mixed at 1:1.2 and purified by SEC; crystals at 20 °C in 200 mM sodium phosphate monobasic, 20% PEG 3350; 2.6 Å. The settings on record: both partners purified. In general terms: Size exclusion chromatography separates by hydrodynamic size, large species first.

For assay [4], the target named is CFH18-20 (human complement factor H CCP18-20) with myc tag and His-tag (human) (UniProt P08603). Description: ITC; CFH18-20 in the cell (5-15 uM), VHH4 or mutants in the syringe (50-150 uM), 20 injections; PBS pH 7.4, 25 °C; iTC200. For orientation: Isothermal titration calorimetry measures the heat released or taken up as one component is titrated into another.
Sequence of CFH18-20 (human complement factor H CCP18-20) with myc tag and His-tag (human) (P08603 1046-1231): as the sequence (P08603 1046-1231 W1183A) above, with A138W counted along it
In assay [5] the target is T2, CFH18-20 (human complement factor H CCP18-20) with myc tag and His-tag (Homo sapiens, UniProt P08603).
T2 construct: complement factor H (CFH), human, domains CCP18-20; Construct for SPR and ITC; PDB 7WKI holds the His-only form of the same protein; also called CFH18-20 WT; CFH CCP18-20; source: Expi293 cells, transfected, purified from the supernatant (Ni-NTA, SEC); not shown: myc, C-terminal, kept; His-tag, C-terminal, kept
T2 sequence (P08603 1046-1231): as the sequence (P08603 1046-1231 W1183A) above, with A138W counted along it
The description is as above. Particulars: both partners purified.

In assay [6] the target is T2, CFH18-20 (human complement factor H …). Description: SPR; CFH18-20 (or W1183A) immobilised on a CM5 chip by amine coupling at around 300 RU; VHH4 or its mutants injected as analyte at 30 uL/min; single-cycle kinetics; PBS pH 7.4, Tween 20 (0.005%), 25 °C; Biacore 8K. The settings on record: both partners purified. On the technique in general: Surface plasmon resonance follows binding to a sensor surface in real time, without labels.

B1: VHH4 (VHH)
VHH: QVQLVESGGGLVQAGGSLRLSCAASGLTVDDYAIGWFRQAPGKEREGVSCISSSNGSTYYADSVKGRFTISSDNAKNTAYLQMNSLKPEDTAVYYCAAAVSPNLECGTGPFGIYASYYGMDYWGQGTQVTVSS
notes: alpaca VHH selected by phage display; CDR3 is Ala99-Tyr122; Disulfide bond between Cys50 and Cys106; also called VHH4 WT; WT; source: E. coli BL21 (DE3), purified (Ni-NTA, SEC)
Turning to B1, in assay [1], the Kd – broadly, the concentration at which binding is half-saturated – amounted to 0.00171 nM; the koff (commonly a measure of how fast the partners let go of each other) is 5.53e-08 s⁻¹; the association rate constant (kon) (usually the rate constant with which the complex forms) was 31400 M⁻¹ s⁻¹. In addition, the Kd in assay [2] was more than 1000 nM. In assay [3], the binding result is recorded as “binds”. Moreover, in assay [4], the Kd was 2.01 nM; the dH is -28.9 kcal/mol; the stoichiometry N – broadly, a count of units in the complex or per binding partner – stood at 0.895.

B2: VHH4 T108A (VHH)
VHH: QVQLVESGGGLVQAGGSLRLSCAASGLTVDDYAIGWFRQAPGKEREGVSCISSSNGSTYYADSVKGRFTISSDNAKNTAYLQMNSLKPEDTAVYYCAAAVSPNLECGAGPFGIYASYYGMDYWGQGTQVTVSS
Regarding B2, in assay [1], the Kd came out at 0.146 nM, the koff worked out at 2.57e-06 s⁻¹ and the kon is 17900 M⁻¹ s⁻¹. In assay [4], this molecule came in with a Kd of 8.79 nM, a dH of -27.2 kcal/mol and a stoichiometry N of 0.924.

B3: VHH4 P110A (VHH)
VHH: QVQLVESGGGLVQAGGSLRLSCAASGLTVDDYAIGWFRQAPGKEREGVSCISSSNGSTYYADSVKGRFTISSDNAKNTAYLQMNSLKPEDTAVYYCAAAVSPNLECGTGAFGIYASYYGMDYWGQGTQVTVSS
In assay [1], B3 yielded a Kd of 0.504 nM, a koff of 7.11e-06 s⁻¹ and a kon of 9210 M⁻¹ s⁻¹. In assay [4], the Kd is 5.03 nM, the dH was -29.8 kcal/mol and the stoichiometry N worked out at 0.838.

B4: VHH4 D121A (VHH)
VHH: QVQLVESGGGLVQAGGSLRLSCAASGLTVDDYAIGWFRQAPGKEREGVSCISSSNGSTYYADSVKGRFTISSDNAKNTAYLQMNSLKPEDTAVYYCAAAVSPNLECGTGPFGIYASYYGMAYWGQGTQVTVSS
notes: as the VHH chain of m4 (PDB 7WKI) with the stated change; also called D121A_(VHH4); Asp121A_(VHH4); source: E. coli BL21 (DE3), purified (Ni-NTA, SEC), as the wildtype
With B4, in assay [5], the equilibrium dissociation constant (Kd) amounted to 361 ± 64.9 nM, the dH is -29.5 ± 1.14 kcal/mol and the “stoichiometry N” value was found to be 1 ± 0.019. In assay [6], binding was put at a Kd of 127 ± 30 nM, the off-rate constant (koff) stood at 0.000545 s⁻¹ and the kon worked out at 4340 M⁻¹ s⁻¹.

B5: VHH4 L104A (VHH)
VHH: QVQLVESGGGLVQAGGSLRLSCAASGLTVDDYAIGWFRQAPGKEREGVSCISSSNGSTYYADSVKGRFTISSDNAKNTAYLQMNSLKPEDTAVYYCAAAVSPNAECGTGPFGIYASYYGMDYWGQGTQVTVSS
notes: as the VHH chain of m4 (PDB 7WKI) with the stated change; also called L104A_(VHH4); Leu104A_(VHH4); source: E. coli BL21 (DE3), purified (Ni-NTA, SEC), as the wildtype
Consider B5, for which, in assay [5], the Kd was 166 ± 40.3 nM, the dH was -24.5 ± 0.99 kcal/mol and the “stoichiometry N” value amounted to 0.947 ± 0.061. Besides, in assay [6], the Kd came to 44.1 ± 2.3 nM, the off-rate (koff) was determined as 0.000489 s⁻¹ and the kon stood at 11200 M⁻¹ s⁻¹.

B6: VHH4 W123A (VHH)
VHH: QVQLVESGGGLVQAGGSLRLSCAASGLTVDDYAIGWFRQAPGKEREGVSCISSSNGSTYYADSVKGRFTISSDNAKNTAYLQMNSLKPEDTAVYYCAAAVSPNLECGTGPFGIYASYYGMDYAGQGTQVTVSS
In assay [1], B6 displayed a Kd of 5.05 nM, a koff of 0.000159 s⁻¹ and a kon of 31200 M⁻¹ s⁻¹. In assay [4], this molecule showed a Kd of 3.92 nM, a dH of -20.9 kcal/mol and a stoichiometry N of 0.866.

B7: VHH4 Y117A (VHH)
VHH: QVQLVESGGGLVQAGGSLRLSCAASGLTVDDYAIGWFRQAPGKEREGVSCISSSNGSTYYADSVKGRFTISSDNAKNTAYLQMNSLKPEDTAVYYCAAAVSPNLECGTGPFGIYASAYGMDYWGQGTQVTVSS
In the case of B7, in assay [1], the Kd amounted to 0.498 nM, the koff turned out to be 5.39e-07 s⁻¹ and the kon was 11300 M⁻¹ s⁻¹. In addition, in assay [4], the Kd is 5.87 nM, the dH was -28.1 kcal/mol and the stoichiometry N is 0.933.

B8: VHH4 Y95A (VHH)
VHH: QVQLVESGGGLVQAGGSLRLSCAASGLTVDDYAIGWFRQAPGKEREGVSCISSSNGSTYYADSVKGRFTISSDNAKNTAYLQMNSLKPEDTAVYACAAAVSPNLECGTGPFGIYASYYGMDYWGQGTQVTVSS
In assay [1], B8 had a Kd of 0.166 nM, an off-rate (koff) of 4.42e-06 s⁻¹ and a kon of 30400 M⁻¹ s⁻¹. In addition, in assay [4], the dissociation constant Kd was found to be 2.27 nM, the dH was -28.2 kcal/mol and the stoichiometry N was 0.842.

B9: VHH4 Y118A (VHH)
VHH: QVQLVESGGGLVQAGGSLRLSCAASGLTVDDYAIGWFRQAPGKEREGVSCISSSNGSTYYADSVKGRFTISSDNAKNTAYLQMNSLKPEDTAVYYCAAAVSPNLECGTGPFGIYASYAGMDYWGQGTQVTVSS
notes: as the VHH chain of m4 (PDB 7WKI) with the stated change; also called Y118A_(VHH4); Tyr118A_(VHH4); source: E. coli BL21 (DE3), purified (Ni-NTA, SEC), as the wildtype
For B9, in assay [5], the affinity, expressed as Kd, was 410 ± 26.4 nM; the dH is -19.4 ± 0.33 kcal/mol; the “stoichiometry N” value turned out to be 0.947 ± 0.041. In assay [6], the Kd is 2200 ± 732 nM, the koff was 0.0298 s⁻¹ and the kon was 15800 M⁻¹ s⁻¹.

B10: VHH4 G119A (VHH)
VHH: QVQLVESGGGLVQAGGSLRLSCAASGLTVDDYAIGWFRQAPGKEREGVSCISSSNGSTYYADSVKGRFTISSDNAKNTAYLQMNSLKPEDTAVYYCAAAVSPNLECGTGPFGIYASYYAMDYWGQGTQVTVSS
In assay [1], B10 showed a Kd of 9.18 nM, a koff of 0.000611 s⁻¹ and a kon of 62800 M⁻¹ s⁻¹. In assay [4], this molecule registered a Kd of 7.26 nM, a dH of -19.4 kcal/mol and a stoichiometry N of 0.865.

B11: VHH4 P102A (VHH)
VHH: QVQLVESGGGLVQAGGSLRLSCAASGLTVDDYAIGWFRQAPGKEREGVSCISSSNGSTYYADSVKGRFTISSDNAKNTAYLQMNSLKPEDTAVYYCAAAVSANLECGTGPFGIYASYYGMDYWGQGTQVTVSS
In assay [1], B11 had a Kd of 0.219 nM, a koff of 4.07e-06 s⁻¹ and a kon of 23700 M⁻¹ s⁻¹. Also, in assay [4], the Kd was found to be 4.11 nM, the dH was -29.6 kcal/mol and the stoichiometry N was 0.961.
